The record followed here is patent US20120196804A1 (INDIANA UNIVERSITY RESEARCH AND TECHNOLOGY, published 2012).

In one assay the target is glucagon receptor. Put plainly: cell-based or functional assay.
The next assay deals with GLP-1 receptor. Put plainly: cell-based or functional assay.

B1: Glucagon R12 K29 (peptide)
peptide: HSQGTFTSDYSRYLDSRRAQDFVQWLMNK
B1: the figures for the “cAMP Induction, EC50 (luciferase reporter, HEK293)” value (“cAMP Induction, EC50” below) with glucagon receptor and in the assay with GLP-1 receptor were 0.81 nM and 0.41 nM, respectively.

B2: Glucagon-Cex (peptide)
peptide: HSQGTFTSDYSKYLDSRRAQDFVQWLMNTGPSSGAPPPS
modifications: C-terminal amide
As to B2, the “cAMP Induction, EC50” value turned out to be 0.25 nM in the assay with glucagon receptor and 2.75 nM with GLP-1 receptor.

B3: Oxyntomodulin KRNR (peptide)
peptide: HSQGTFTSDYSKYLDSRRAQDFVQWLMNTKRNR
Turning to B3, the “cAMP Induction, EC50” value was found to be 2.77 nM with glucagon receptor and 3.21 nM with GLP-1 receptor.
